According to the supplement of paper PMC9170038:

These sequences were tested on MS2 coat protein (assay: apparent KD of MS2 coat protein, switch ON state; designed switch direction (-1 OFF switch, 1 ON switch): 1; higher = weaker reporter binding). Conditions: FMN input: 0 or 200 uM; Eterna round: R93 (includes R88 designs).
Summary of the method: (§1)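 Designed RNA switches were made by on-chip transcription from Illumina sequencing clusters and then titrated with SNAP-549-labelled MS2 coat protein. Twofold steps ran from 0.7 or 1.5 nM to 3 µM, each lasting 0.8–1.5 h early and 10–20 min late, in 100 mM Tris-HCl pH 7.5, 80 mM KCl, 4 mM MgCl2, without or with constant ligand. Apparent KD is the per-design median of normalised cluster binding-curve fits.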

Q: Which “apparent KD of MS2 coat protein” value does the source give for “UCAAAACAUGAGGAUCACCCAUGUAGCCUAAAGCGAGGAUAUGGGUUUCUUUAAAGAGUACCAGAAGGCGCCAAAA [Enenala]” here?
A: 27.9 nM

Q: “AACAACAAUAUGAAGGAUAUCCACAACAAGACAUGAGGAUCACCCAUGUAAACUUAGAACAUACAGGAGAAGGUCAAGGGUGAAU [JR_SS002_Sub1204]” was tested. Which “apparent KD of MS2 coat protein” value did it give?
A: 221 nM

Q: Which “apparent KD of MS2 coat protein” value does the source give for “CGGAGACAUGAGGAUCACCCAUGUGAGAAGAGGCGAGGAUAUCGAAAGAAAGAAGAGAAAUGAGAAGGCGCGAGCC [salish99-SS1-081]” here?
A: 36.2 nM

Q: For “GACAAACAUGAGGAUCACCCAUGUAGACAUAUGGGAGGAUAUACACAGACGAAAGUCACAGUAGAAGGCCUACAAG [77%, Mat - Mod of Eli - With 5 more C's]”, which “apparent KD of MS2 coat protein” value is on record?
A: 26.9 nM

Q: Which “apparent KD of MS2 coat protein” value does the source give for “GAAAAACAUGAGGAUCACCCAUGUGUAAAUAUGGGAGGAUAUACAAAGACGGAAGUCAAAGUAGAAGGCCUAAAAG [Mat - Same State 1 - Eli mod - D11]” here?
A: 94.3 nM

Q: How did the “apparent KD of MS2 coat protein” value turn out when “AAACCACAUGAGGAUCACCCAUGUGAAAAAAAUACAGGAUAUGGAAACACGAAAGUGAAACCAGAAGGGUGAAAAA [77%, Mat - Mod of Eli, 28]” was run?
A: 13.4 nM

Q: Which “apparent KD of MS2 coat protein” value does the source give for “AAGAAACAUGAGGAUCACCCAUGUGAGAAAAACACAGGAUAUGCAAAAGAAAGAAAGAAAGCAGAAGGGUGAAGAA [Mat - Same State 1 - Tesla mod - 52]” here?
A: 22.5 nM

Q: Which “apparent KD of MS2 coat protein” value does the source give for “AGGAAACAUGAGGAUCACCCAUGUAAAAAUAUGGGAGGAUAUACUAGAAGAAACAAAAUAGUAGAAGGCCUAAAAA [75%, Ex sub1, 26]” here?
A: 17.4 nM

Q: With “AAAAGGGCGACACAGGAUAUGUUGACCCUAACAUGAGGAUCACCCAUGUGCAUUUAGGGUCGUGCGCAGAAGGGUGCAGCUCGGA [Enatin]” as the sequence, how does the “apparent KD of MS2 coat protein” value read?
A: 21.1 nM

Q: For “AGAAAUAAAACACAGGAUAUCCAAAAUAAAACAUGAGGAUCACCCAUGUAAAAUAAAAUAAAAUGGGAGAAGGGUGAAAAUAAAG [Mat - Same State 2 - JL mod - D10]”, which “apparent KD of MS2 coat protein” value is on record?
A: 25.3 nM

Q: How did the “apparent KD of MS2 coat protein” value turn out when “AGACAUAACAGAGAGGAUAUCCAAUAGAAAACAUGAGGAUCACCCAUGUGAAAGAUAAUAAAAUGGGAGAAGGCUCACAUACAGA [Topaz 40]” was run?
A: 19.5 nM

Q: Which “apparent KD of MS2 coat protein” value does the source give for “CGGAGACAUGAGGAUCACCCAUGUGAGAAGAGGCGAGGAUAUCGAAAGAAAGAAGAGAAACGAGAAGGCGCGAGAA [salish99-SS1-065]” here?
A: 20.4 nM

Q: Which “apparent KD of MS2 coat protein” value does the source give for “CAUCACGCGCCUAAGGAUAUGUCUCACAAGACAUGAGGAUCACCCAUGUAGACUAAAUAAACGAUGCAGAAGGUGGAGCGCAUGC [Usrexe]” here?
A: 76.4 nM

Each sequence was assayed on MS2 coat protein (assay: apparent KD of MS2 coat protein, switch OFF state (with FMN for OFF switches, without FMN for ON switches); designed switch direction (-1 OFF switch, 1 ON switch): -1; higher = weaker reporter binding). Conditions: FMN input: 0 or 200 uM; Eterna round: R93 (includes R88 designs).
Summary of the method: as §1

Q: How did the “apparent KD of MS2 coat protein” value turn out when “AGCUAGUCAGGAUAUACGAACAUGUAAAAAGACGUGAAGGGACAUGAGGAUCACCCAUGUAGAAGGGACUAGAA [74%, Web mod - With 2 less C's]” was run?
A: 91.3 nM

Q: Which “apparent KD of MS2 coat protein” value does the source give for “AGUCCAGAAGGAUAUACAUAGGUGAUAAAAAAAAAAAAACUACAUGAGGAUCACCCAUGUAGAAGGUCUGGACA [Brourd - Exclusion 2 - Sub 3]” here?
A: 24.5 nM

Q: “AUUAUGUAAGGAUAUGAGUGAACAACAAAACAAAUAACGACUCAGAAGGUACAUGAGGAUCACCCAUGUAUAAA [May 70]” was tested. Which “apparent KD of MS2 coat protein” value did it give?
A: 21 nM

Q: With “AAGUUAUUAGGAUAUACUUGUGCGAUUAAUACGUUGAUAUUACAUGAGGAUCACCCAUGUAGAAGGAAUAAAAA [JR_Exc002_Sub412]” as the sequence, how does the “apparent KD of MS2 coat protein” value read?
A: 19.4 nM

Q: How did the “apparent KD of MS2 coat protein” value turn out when “AAGAAGUCAGGAUAUGCCAAAGGUCACGAAAGUGACAAAGGGCAGAAGGGACAUGAGGAUCACCCAUGUAAAGA [Opal 2]” was run?
A: 56.7 nM

Q: For “AGUCAGAGAGGAUAUACAUGAAAAAAAAAAGUUAGAUCCCUACAUGAGGAUCACCCAUGUAGAAGGCUCUGACA [Ex2 Design 151: Sub-opt 15]”, which “apparent KD of MS2 coat protein” value is on record?
A: 27 nM

Q: How did the “apparent KD of MS2 coat protein” value turn out when “AUAGUAGGAGGAUAUACAUAGAUACAGAUACAUGUAGACGUACAUGAGGAUCACCCAUGUAGAAGGCCUAUGAA [Mat - Same state - Mayanna Mod - D149]” was run?
A: 116 nM

Q: How did the “apparent KD of MS2 coat protein” value turn out when “AAAAUACAUGAGGAUCACCCAUGUGAGGAUAUGAGAAAGGGAAUAAAAUAACCCAAACUCAGAAGGCACAAAAA [Ex 1 May 26]” was run?
A: 45.9 nM

Q: Which “apparent KD of MS2 coat protein” value does the source give for “AAGGGACAUGAGGAUCACCCAUGUCAGGAUAUGCUAUGGAAAAAUAAAAUAAAACAUAGCAGAAGGGAUAAAAA [Mat - Exclusion 1 - Eli mod - D32]” here?
A: 51.1 nM

Q: Which “apparent KD of MS2 coat protein” value does the source give for “AGCUAGUCAGGAUAUACGAAAACGAACGAAGCUGAGAAGGGACAUGAGGAUCACCCAUGUAGAAGGGACUAGCA [Diamond 33]” here?
A: 107 nM

Q: How did the “apparent KD of MS2 coat protein” value turn out when “AGCUAGCGAGGAUAUACGAACAUGUCAAAAGACGUGAAGGGACAUGAGGAUCACCCAUGUAGAAGGUGCUAGCA [JL 74% mod 7]” was run?
A: 70.3 nM

Q: How did the “apparent KD of MS2 coat protein” value turn out when “AAAAACCUAGGAUAUACAUGAGGAUCACCCAUGUAAAGAAACAAAAAGGGAAAAACAAGUAGAAGGAGGAAGAA [JR_Exc003_Sub1202]” was run?
A: 18.2 nM

Q: With “AGUUGGCGAGGAUAUACAUGAGGAUCACCCAUGUAAAAUAAAUAAAAAGGGAAAGAAAGUAGAAGGCGCUGACA [73%, Moding Norbert Elias, 10]” as the sequence, how does the “apparent KD of MS2 coat protein” value read?
A: 83.3 nM

Q: Which “apparent KD of MS2 coat protein” value does the source give for “AAAAAACAUGAGGAUCACCCAUGUGAGGAUAUCCUAAAGGGAAUAAAAUAACUCAAAAGGAGAAGGCGCAAAAA [Ex 1 May 31]” here?
A: 46.3 nM

Q: How did the “apparent KD of MS2 coat protein” value turn out when “AGGAAACAUGAGGAUCACCCAUGUGAGGAUAUAGAAAAGAAAAGAAAAGAAAGAAGAACUAGAAGGCACAAGAA [Neheb]” was run?
A: 28.8 nM

Q: How did the “apparent KD of MS2 coat protein” value turn out when “UAUGAGCGAGGAUAUGCUUGGGACGUCGUUCUUGCGGCGAGACAUGAGGAUCACCCAUGUAGAAGGCGCGAGCG [Harteesian Twist]” was run?
A: 16.7 nM

Q: “AUAGGUCGAGGAUAUACAUGAGGAUCACCCAUGUAAAUAAAUAAAUAAAACUCCACAAGUAGAAGGCGAAAUAA [JR_Exc003_Sub201]” was tested. Which “apparent KD of MS2 coat protein” value did it give?
A: 22.6 nM

Q: For “AAGAAGGGAGGAUAUACAAAAUAAAAGAAAAGAAAGAAAGAACAUGAGGAUCACCCAUGUAGAAGGCUCAAGAA [Mersekhemre Ined]”, which “apparent KD of MS2 coat protein” value is on record?
A: 24.9 nM

Q: With “GAAAAGGUAGGAUAUACGAAAAAAAAGGGUAAAAUAAAUAAACAUGAGGAUCACCCAUGUAGAAGGACCAAAAG [Mat - Exclusion 2 - Tesla mod - D39]” as the sequence, how does the “apparent KD of MS2 coat protein” value read?
A: 49.6 nM

Q: Which “apparent KD of MS2 coat protein” value does the source give for “AAAUCAGUAGGAUAUACGAUUUGGUACUAGACCGAGGAACCACAUGAGGAUCACCCAUGUAGAAGGACUAGAUA [EX2 Malc#21]” here?
A: 12.9 nM

Q: For “AAAAAAGGAGGAUAUACGUACAUGUCGAAAGACGUGAAGGGACAUGAGGAUCACCCAUGUAGAAGGCCUAAAAA [Mat - Exclusion 2 - JL mod - D86]”, which “apparent KD of MS2 coat protein” value is on record?
A: 107 nM

Q: With “AAAAAGGGAGGAUAUACAUGAGGAUCACCCAUGUGAAGGACGAAAAAGAGUCUAAAGGGUAGAAGGCCCAAAAA [65%, Moding Exclusion3-cac2, 11]” as the sequence, how does the “apparent KD of MS2 coat protein” value read?
A: 43.4 nM

Q: With “AACUGACAUGAGGAUCACCCAUGUCAGGAUAUGACUUGACGAAAAAAAACACGUCAUGUCAGAAGGGACAUGGA [Design 89: Sub-opt Z]” as the sequence, how does the “apparent KD of MS2 coat protein” value read?
A: 37.3 nM

Q: With “AACAGUACAGGAUAUACAUGAGGAUCACCCAUGUGAGAAUAAAGUGGCGUACCACAAAGUAGAAGGGUACUGGA [Mat - Exclusion 3 - JL mod - D20]” as the sequence, how does the “apparent KD of MS2 coat protein” value read?
A: 148 nM

Q: “AAGGGACAUGAGGAUCACCCAUGUCAGGAUAUGCUAUGGAAAUAAAAAAUAAAACAUAGCAGAAGGGACACCAA [Mat - Exclusion 1 - Eli mod - D49]” was tested. Which “apparent KD of MS2 coat protein” value did it give?
A: 39.2 nM

Q: Which “apparent KD of MS2 coat protein” value does the source give for “AGUAUGCGAGGAUAUACAUGAGGAUCACCCAUGUGAGAGAUAAAAGUGAGAAAGAAAUGUAGAAGGCGCGUACA [JL Lego Mod 22]” here?
A: 43 nM

Q: For “AAAAAACAUGAGGAUCACCCAUGUGAGGAUAUCGGUAGUGAGGCUAUAGUGUCAAUAGUGAGAAGGCACAUAAA [Brourd 613 Mod 12 - Jieux - Exclusion 1]”, which “apparent KD of MS2 coat protein” value is on record?
A: 29.2 nM

Q: “AGUUGGCGAGGAUAUACAUGAGGAUCACCCAUGUAAAAUAAUGAAAAAGUAGGGAAAAGUAGAAGGCGCUGACA [73%, Moding Norbert Elias, 19]” was tested. Which “apparent KD of MS2 coat protein” value did it give?
A: 96.7 nM

Q: “AAAUGACUAGGAUAUACAUGAGGAUCACCCAUGUGUUAAAAUAAAUACACAAAAGAAAGUAGAAGGAGUCAAAA [Ex 3 May 15]” was tested. Which “apparent KD of MS2 coat protein” value did it give?
A: 59.7 nM
